Experimental data reported in the supplement of paper PMC9732359.
± gives the uncertainty stated by the source.

Assay: protein stability index of a GFP-peptide fusion (yeast GPS) (PSI 1-4); higher = more stable; sorted into four equal gates, so the index is relative within each strain
Procedure, shortened: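 Peptides tiling yeast proteins in 17-residue segments were fused downstream of GFP, with Cherry expressed from the same plasmid. As a pooled library in yeast, mid-log cultures grown in leucine-free medium were sorted into four equal gates by GFP/Cherry fluorescence ratio. Gate plasmids were PCR-amplified and Illumina-sequenced, and barcodes linked reads to strains. Each peptide received a protein stability index equal to the sum of each gate's read frequency times its gate number.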

| Sequence | protein stability index (doa10∆) | protein stability index (pdr5∆) | protein stability index (san1∆) | protein stability index (ubr1∆) |
| --- | --- | --- | --- | --- |
| KQHAVLMLGSVNLPGGI [RRP4] | 2 ± 0.049 | 2.17 ± 0.058 | 1.94 ± 0.081 | 1.66 ± 0.037 |
| KQQEQLEQQKQPTGLLK [YMR153W/NUP53] | 3.35 ± 0.13 | 3.12 ± 0.14 | 2.97 ± 0.069 | 3.15 ± 0.065 |
| KQRAGTASFIPLDTIET [SMC1] | 2.62 ± 0.06 | 2.82 ± 0.064 | 2.65 ± 0.056 | 2.66 ± 0.051 |
| KQREIVKAFLSIFEDAI [NUT1] | 1.92 ± 0.081 | 1.65 ± 0.071 | 2.38 ± 0.19 | 1.76 ± 0.1 |
| KQRFQGCNNLIKNISNR [ARP9] | 2.89 ± 0.07 | 2.88 ± 0.048 | 3.26 ± 0.063 | 3.03 ± 0.048 |
| KQRKNPRRIAWTVLFRK [RPL24A] | 3.03 ± 0.14 | 2.27 ± 0.1 | 1.41 ± 0.25 | 2.27 ± 0.048 |
| KQVLDVDPVYKDVAKPT [FAS2] | 2.98 ± 0.065 | 2.99 ± 0.058 | 3.08 ± 0.037 | 2.86 ± 0.041 |
| KRAEKAARKAEKAKSAG [RPL24B] | 2.91 ± 0.073 | 2.48 ± 0.051 | 1.55 ± 0.087 | 2.92 ± 0.04 |
| KRAFTKKVASANATAAE [RPL16A] | 2.73 ± 0.068 | 2.69 ± 0.06 | 2.82 ± 0.04 | 2.55 ± 0.037 |
| KRCMDDLNPLKTLNLFK [RPO31] | 2.98 ± 0.15 | 2.99 ± 0.074 | 2.69 ± 0.12 | 2.92 ± 0.064 |
| KRFLILQGEVENIAQMK [SMC4] | 3.05 ± 0.29 | 2.98 ± 0.14 | 3.2 ± 0.14 | 2.79 ± 0.098 |
| KRIESLQKDLQRQKTYV [SMC1] | 3.01 ± 0.16 | 3.2 ± 0.13 | 2.85 ± 0.21 | 2.9 ± 0.15 |
| KRIKGLEFSALSAADIV [RPO31] | 3.09 ± 0.09 | 3.15 ± 0.076 | 3.15 ± 0.061 | 3.24 ± 0.067 |
| KRLLGTAFKSSPFGGSS [RPS23A] | 2.22 ± 0.043 | 2.61 ± 0.045 | 2.33 ± 0.055 | 2.23 ± 0.034 |
| KRLNFSFVGDYMHDTEL [GRR1] | 2.55 ± 0.065 | 1.89 ± 0.073 | 2.47 ± 0.11 | 3.22 ± 0.085 |
| KRPGKLSDYIPGPYPNE [CYT1] | 3.19 ± 0.059 | 3.22 ± 0.06 | 3.24 ± 0.041 | 3.16 ± 0.037 |
| KRPRSRTLTAVHDKVLE [RPS7B] | 3.36 ± 0.17 | 2.99 ± 0.13 | 3.02 ± 0.07 | 2.08 ± 0.24 |
| KRPTPPSFTFGGSTTNN [YOR098C/NUP1] | 2.74 ± 0.051 | 3.03 ± 0.048 | 2.78 ± 0.043 | 2.9 ± 0.032 |
| KRRFGELMDRTGLKLYS [RPP1] | 2.21 ± 0.18 | 2.98 ± 0.12 | 2.23 ± 0.11 | 2.45 ± 0.11 |
| KRSMDAEQLGHASKRHK [RPP1] | 2.54 ± 0.058 | 2.79 ± 0.056 | 2.68 ± 0.056 | 2.61 ± 0.054 |
| KRSQKKHKKKHLKHENA [RPB4] | 3.03 ± 0.044 | 2.96 ± 0.052 | 3.09 ± 0.037 | 3.25 ± 0.043 |
| KRTIRIKTQQHILPEVP [TAF14] | 1.92 ± 0.059 | 2.02 ± 0.049 | 2.2 ± 0.066 | 2.07 ± 0.063 |
| KRVDFSGRTVISPDPNL [RPO31] | 2.44 ± 0.1 | 2.65 ± 0.11 | 3.2 ± 0.14 | 2.83 ± 0.086 |
| KSAISNNFRESDIIILK [SIR4] | 3 ± 0.08 | 2.56 ± 0.065 | 2.96 ± 0.06 | 3.09 ± 0.059 |
| KSFYSTATGAASKSGKL [CYT1] | 2.74 ± 0.091 | 2.62 ± 0.1 | 2.87 ± 0.079 | 2.75 ± 0.059 |
| KSGRINGFHGRLGDLGV [SMC4] | 3.41 ± 0.11 | 3.43 ± 0.093 | 3.13 ± 0.1 | 3.31 ± 0.045 |

| Sequence | protein stability index (doa10∆) | protein stability index (pdr5∆) | protein stability index (san1∆) | protein stability index (ubr1∆) |
| --- | --- | --- | --- | --- |
| KSMASAFGVSVAFLDND [RPN7] | 3.04 ± 0.091 | 3.08 ± 0.093 | 3.01 ± 0.066 | 3.24 ± 0.062 |
| KSMGRKCFDDIEPHIFD [YCG1] | 3.15 ± 0.075 | 3.07 ± 0.084 | 3.29 ± 0.046 | 3.32 ± 0.048 |
| KSMLSKPETLSIGKNPF [SWI3] | 2.69 ± 0.053 | 2.91 ± 0.054 | 2.6 ± 0.05 | 2.9 ± 0.037 |
| KSMSILNSFVNDIFERI [HTB1] | 2.73 ± 0.1 | 3.18 ± 0.13 | 2.47 ± 0.2 | 2.94 ± 0.062 |
| KSSFVKESAVISKQKSK [SMC1] | 2.18 ± 0.1 | 2.34 ± 0.046 | 2.26 ± 0.064 | 2.37 ± 0.037 |
| KSSLYSAQDLLDKHERK [YIL149C/MLP2] | 3.05 ± 0.084 | 3.01 ± 0.075 | 2.83 ± 0.11 | 3.15 ± 0.036 |
| KSSPISNEAAKPSFSFP [YOR098C/NUP1] | 2.86 ± 0.05 | 2.93 ± 0.045 | 2.96 ± 0.037 | 3 ± 0.04 |
| KSTYRTPNFDDVLKENN [RIP1] | 1.54 ± 0.087 | 1.45 ± 0.12 | 1.38 ± 0.14 | 2.1 ± 0.079 |
| KSVEKTMIKKTTLVTRR [SMC3] | 3.17 ± 0.23 | 3.19 ± 0.12 | 2.91 ± 0.066 | 3.4 ± 0.2 |
| KTAIEGSYIDKKCPFTG [RPS11A] | 3.12 ± 0.069 | 3.37 ± 0.075 | 3.08 ± 0.051 | 3.27 ± 0.036 |
| KTAPIQESFVPNSERSG [YOR098C/NUP1] | 2.27 ± 0.24 | 2.42 ± 0.11 | 1.4 ± 0.26 | 3.03 ± 0.081 |
| KTAQTLDENLNSLSSNL [YJL041W/NSP1] | 2.48 ± 0.04 | 2.29 ± 0.055 | 2.23 ± 0.061 | 2.46 ± 0.037 |
| KTATVKINKKLNKAGKP [RPL38] | 2.73 ± 0.17 | 3.21 ± 0.11 | 3.22 ± 0.098 | 3.19 ± 0.1 |
| KTCAKSVIQLCGGINDS [ECM29] | 3.43 ± 0.26 | – | – | – |
| KTFEIKEIKTNEYVIKT [YMR129W/POM152] | 2.58 ± 0.1 | 2.25 ± 0.089 | 1.92 ± 0.091 | 2.02 ± 0.047 |
| KTIQINNEKVVQYLRSV [YML031W/NDC1] | 3.23 ± 0.17 | 3.24 ± 0.12 | – | – |
| KTKKEKGPNEEEKKKEH [RPN2] | 3.05 ± 0.28 | 3.32 ± 0.16 | 3.49 ± 0.081 | 3.13 ± 0.19 |
| KTLHSQMMSKGIGALFT [RPC34] | – | – | – | 3.18 ± 0.21 |
| KTLTEEVTKSSHVENLE [YIL149C/MLP2] | 2.81 ± 0.053 | 2.94 ± 0.053 | 2.86 ± 0.051 | 3.13 ± 0.035 |
| KTTNTTPSFSFGAKSDE [YJL041W/NSP1] | 3.27 ± 0.079 | 3.24 ± 0.082 | 3.09 ± 0.035 | 3.18 ± 0.048 |
| KTVAVDSVFEQNEMIDA [RPL3] | 2.57 ± 0.095 | 2.75 ± 0.12 | 2.31 ± 0.11 | 2.51 ± 0.042 |
| KTVQSMTQRAIQSAESI [SWI3] | 2.5 ± 0.11 | 1.8 ± 0.079 | 2.53 ± 0.13 | 1.82 ± 0.12 |
| KTYALESINNVVDQLWS [RPN2] | 2.82 ± 0.066 | 2.9 ± 0.059 | 2.7 ± 0.07 | 2.6 ± 0.055 |
| KVDATPEESKPINLQNG [YLR335W/NUP2] | 2.9 ± 0.088 | 2.95 ± 0.079 | 2.8 ± 0.06 | 3.21 ± 0.049 |
| KVDSPDDPFMTKSGATT [GAL11] | 2.51 ± 0.077 | 2.63 ± 0.071 | 2.59 ± 0.055 | 2.79 ± 0.045 |
